Measured values: the DeepSol protein solubility set

Assay: soluble on expression in E. coli; label from the status in PepcDB or PDB records

Soluble on expression in E. coli, not soluble:
MGSDKIHHHHHHMVGIVLASHGNFAEGIYQSAEMIFGKQQNVQTVTLSPNEGPEDFLNKLKQAIDSFDDQKQVLLLIDLWGGTPFNQSSGLLSGHEDSWAVVTGMNLPMVIEAYGSRSSMDSAQEIATHIIETGKDGIRIKPESLEPKKATATVKSSGQPHGTIAPGTVLGDGKIKYVLARVDSRLLHGQVAMSWTKSTNPNRILVVSDSVAKDRLRKSMIVEAAPPGVNTNVIPIKKMIEVAKDPRFGNTKALVLFENPEDALKTIEGGVDIKELNIGSMSHAVGKVAVNKVLSLGKEDVEAFDGLKKLGVKFDVRKVPGDSSENMDNIVIKLEKIYQVLNLKKIRRV
MGSDKIHHHHHHMDNDSTPRGTVCVTGATGYVGGRLVPRLLDHGWRVRALVRTPAKLLCRPWARHPRLDIIRGDLDDACSLVPALEGCDAVFYLVHSMNPHVTGRDTFAKADRAAASNMVRACDEARPGRIIYLSGLVPEGEELSPHLRSRAEVADILARGETPLTVLRAAQILGSGSASFEMVRYLVDRLPVMLTPRWVHSLCQPIAISNVLGYLEGCLDHPETMGQTYDIGGPDILSYRELFDIFAEVAQLRRRTIIPVPVLSPELSAHWINLVTPIPKALATPLIQGLRNRVVCADDRIRDIIPQRLLSCREAIGKALDRVREQSVPTCWTDAGRPDMPEWMTCGDASYAGGDLLECAYAIQVEAPPETVWKPVSAIGGETGWYHGDLLWRLRGMLDKLVGGPGLRRGRRHPTDIGVGDALDFWRVLDVRPGERLLLLAEMKVPGDALLEFRLAPTATGGTELWMLSWFLPRGLAGLAYWWALYPLHKGLFKGMLCGLAAATGAPVSREPWALPPRREFACALPLTDASAPGRRDTTAQ
MGSDKIHHHHHHMPFVSYAQNLEDVRLWRALKLFPRGFYIDVGANHPRIDSVTLAFYERGWRGINIEPLPHLHRELERERPEDLNLNLAIGEREGRATLYEMAASGLSTLDPELARQRQAEGCTATPREVKVSTLDAICAAHVEGPIHFLKIDVEGLEGAVLRGLDLNRWRPWLILAETPFDHDPEWKAPLLAAGYRFVHFDGLNGYYLAEEQARLEGAFALPPNLLDDFQLCHGHAMSHPVAPLEQALEQALQRAEDAERALRDWRALPWYRRLFG
MLAKRIIPCLDVRDGQVVKGVQFRNHEIIGDIVPLAKRYAEEGADELVFYDITASSDGRVVDKSWVSRVAEVIDIPFCVAGGIKSLEDAAKILSFGADKISINSPALADPTLITRLADRFGVQCIVVGIDTWYDAETGKYHVNQYTGDESRTRVTQWETLDWVQEVQKRGAGEIVLNMMNQDGVRNGYDLEQLKKVREVCHVPLIASGGAGTMEHFLEAFRDADVDGALAASVFHKQIINIGELKAYLATQGVEIRIC
MAHHHHHHMKKPEHVRNIVYEIKRKVQIPVSVKIRTGVDDCDSFPFLRSFIECVSSVGCTHFIVHARKAWLKGLDPKQNRSVPPLQYSKVYTLCQLYPHLKFTLNGGIKTIEEAVALLNGYLPREDKCDGEKTYVQVQNYHVNPLNGVMLGRACMENTTVLSQTDQLVYNEKPPHTAFSRRTVLDAYKSYLEENSSLCSLSSAFELLKPILGILKGMPGHRIFRNKVDMYIRNYSSTLPCSGILEKAMVDVDAVAPGCLDLPLADYKLQQEYIKNY
MGSDKIHHHHHHVAKAELMQLPASQMVIGLTVKLPLGWTQHPFFINRIKLTSQAQIELIRGLELTFVYVLSGHELLPEVIEEVEDKQADPMQVKAKPKKVLDSKAAVIKAMRVGQQRFLSNINESRSVFAQFAIEPDKAYREAATMVEGFVDHLQETDTPYLALVGSGEMDVSVTQHGISVAVLSLMIGHALELPKSDLRDLALGSLFHDFGKLKIPDNIRRKRSELTEPEQNYLKMHPNLGFDLLNACNLYPKSVLNIVLHHHEYIDGSGYPDHLTEKDIPLLTQIVSLANDYEGLLEQFTFSPQLALGTLFKSHAKKHAQNLIAALVKVLGIYPPGTLVSLSDGSIGKVMMTTREVKQPHVWSCNLGGGEANLRFLLEEDVTVSSVLRLEELTEGALKTLQADSPISFYFSALPDN
PLIAVFIGSILFDYRLAQETADTAYDHSLNNAALDIAAYIQTVGLSPKLRLTPEAEAMLRHDAVDKIFFAVRDSNKQLLIGDAQLPAYPGAIHKRPVFIDDVYQGEKIRATTQLIMVDANEITITVAETMREREHASNRIL
GPGSMAKKEVVWLGTPTEADGSELSSPFTSRIGGSAVLFREAPTYSIFNCPKCRSSRWVSLLTQIYAPLDVYDRIVYVLICSSCSEGKGSFCFAVRSQNFNPSYVQSSPAPVVGGGEDEGITFVEDGDWGDDDPKYVDEGPNEVCITNLTCTTMADECKVGSPTQSTDVSSVLVPHGTKVPVEGFCYPCFVLNIFEEPPKPKLCYGTVPDQLLKAQQTYGEDAVETTVVEDEDEPLAEKLLRKYVDRIGRVPSQCVRWGPGQKPLRSSPAPIVIPRCPRCSNERRYELQLTSPIIYFLTKGKEEKDHSLHFGSVLVYTCGGNCNVQPYSLEHCVVEDEV
GPGSMYTHTRMHTTSASATLLSLPLCVRASPTNTPAAQLSALSDHLGLRVIKTNNLHTSSRSNMPAKAAAKPVKPAAKAAPKPANKAPAPKAAAAKPVAKAAPKAAAPAARPASGSSNGVYVKNWGTGSVADAANVFSAAGKVVKVQLRRQRYAIVFFENSAAVKKAIDLFNEKEVLGKTVLVVPAKTSPKPDAHENSSCVFVSPIFRPSTTKAQVMELFAGVKVQRLRMYRQNFAYAYLDSPAAAKKFVEEKNGTEFRGHTLRVALSARSLEKLRARQEAANVVIAAHRHYKTHERQ
HLQGLSAAVLDLTGLAQKGGTVVSHIRLAPSGTANGPVRLDWQQADAAILCDPVAAVAPDSLGALRRDHTRTTVNTYVAPVSDFTRNPDAPLRADALLAKIRHAAGEHVAALDAHAAAQALFGDSILSNMFMLGHAWQRGDVPLALAALARAIELNGVAVAANRAAFDAGRLAAHE
MGSDKIHHHHHHVKRRLNPLEAYLVVMSNADRAGGLVLAATPKMKQEHHIKTGSRMYELPTWDKRIIIAPPRMKLYLKVNAMIQAIFRRYVPAEFIHVYSIDECFLDITGSHLLFGSTEEIVRKIQRDILEELRLYVTVGIGDNPLLAKLALDNVAKNRDDGIAEWRYEDVPETIWKIRHLDDVCGIGRRTAIRLQKMGIFNMYQLSQTPPQVLKNAMGVVGEQLYYHAHGIDYSLLNEKYVPVSKSYGKSQILEKDYHIPAEVEIVIREMVEEVAMRLRQNHVDTEVIHLSIGYSKYSIKKGFSHQAKIPSTSSSHALIPYFLQLFRRYDEREPVRSIAISCGKLTLKTGLQLNLFEDATRTLNHEQLEVTVDKIRTRYGFKSLMHASSLLNGATGLKRSEMVGGHKG
MFDAKKLEQIAKQIHEAMPQPVKELGADVEQKVRQVIQGQLNKLDVVSREEFDVQTQVLLRTRQKLTELEQKMAELEAKLADK
MTLNKTDRIVITLGKQIVHGKYVPGSPLPAEAELCEEFATSRNIIREVFRSLMAKRLIEMKRYRGAFVAPRNQWNYLDTDVLQWVLENDYDPRLISAMSEVRNLVEPAIARWAAERATSSDLAQIESALNEMIANNQDREAFNEADIRYHEAVLQSVHNPVLQQLSIAISSLQRAVFERTWMGDEANMPQTLQEHKALFDAIRHQDGDAAEQAALTMIASSTRRLKEIT
MGSDKIHHHHHHCQNAAATDTNQSVSAKLQQQALSSSLAYDIVESLTVEVGPRLAGSDKDLVAVEWAEKKLGSLGFDKVYKEAVQVPVWQRGEAKANIVSPYAQPLVITALGGSVGTPEEGISAPIVRFETLDELKQADPSLVAGKIVFIDHITPRFKTGKGYGMTVGGRSRGAIAAAEKGALAIVIRSIGTDHDRMAHTGMMRYQEGVDKIPAAAMSNPDADLVTLMLKRDPNVVLHLEMSPKNLGYATSYNVIAEVTGSSKPDEIVLIGAHLDSWDEGTGAIDDGAGVAIVTAAGHYISQLRVKPARTVRVVLYAAEELGLIGGKSYAKDHQAELAQHYIAAESD
GPGSMVSRDSRYIHRRWYLEDATLTIQQPKLELLVDFDDPSSFAFPANLPPTLGMRRAAAVATATGGLSGVMGLGSEGNLLADWREIGIPPFTEE
EVVVTGMQKMDKRLFTGATQQLTADNVKLDGLPDISRGLEGRAAGVSVQNVSGTFGTAPKIRVRGATSIYGSSKPLWVVDGVIMEDAIDVGPDDLSSGDAETLISSAIAGLNSDDIESFQILKDGSATSIYGARAMAGVIVVTTKKGK

Soluble on expression in E. coli, soluble:
GPLGSKDTRPQTDDVLNTKGNTFEDFYLKRELLMGIFEAGFEKPSPIQEEAIPVAITGRDILARAKNGTGKTAAFVIPTLEKVKPKLNKIQALIMVPTRELALQTSQVVRTLGKHCGISCMVTTGGTNLRDDILRLNETVHILVGTPGRVLDLASRKVADLSDCSLFIMDEADKMLSRDFKTIIEQILSFLPPTHQSLLFSATFPLTVKEFMVKHLHKPYEINLMEELTLKGITQYYAFVEERQKLHCLNTLFSKLQINQAIIFCNSTNRVELLAKKITDLGYSCYYSHARMKQQERNKVFHEFRQGKVRTLVCSDLLTRGIDIQAVNVVINFDFPKTAETYLHRIGRSGRFGHLGLAINLINWNDRFNLYKIEQELGTEIAAIPATIDKSLYVAENDET
MGSDKIHHHHHHMEKILDLLMSFVKEDEGKLDLASFPLRNTTAGAHLLLKTENVVASGIEVSRMFLEKMGLLSKFNVEDGEYLEGTGVIGEIEGNTYKLLVAERTLLNVLSVMFSVATTTRRFAEKLKHAKIAATRKILPGLGVLQKIAVVHGGGDPHRLDLSGCVMIKDNHLKMYGSAERAVQEVRKIIPFTTKIEVEVENLEDALRAVEAGADIVMLDNLSPEEVKDISRRIKDINPNVIVEVSGGITEENVSLYDFETVDVISSSRLTLQEVFVDLSLEIQR
MDNLVWDGIPDIRTLDQTIRKHAHPLNLIVCLPDNQIPDFQTAQDASDSECRLKHRLDQATQCLQFDSINLIEHILPDVRFWLVPPSRTRRLHEHFHHISWQTEAIPQTESKSDKPWFALPQTSERKKPEHVLVIGAGIAGASTAHALASHGISVTVLEARKAAQAASGNRQGLLYAKISPHDTGQTELLLAGYGYTKRLLGHILPDSDTWGGNGIIHLNYSRTEQQRNHELGLQKHHNHLYRSITSAEAEKIAGIPLNTPYAEPLCGLYWQHGVWLNPPAFVRTLLSHPLIELYENTTLTGISHDGEKWIASTPNGTFTATHIIYCTGAHSPCLPETNLAALPLRQIRGQTGLTPSTPFSEQLRCAVSGESYISPSWHGLHCYGASFIPNSSNTGWNEAEEASNRQALAHLNPALAESLFAANPNPQKHQGHAAIRCDSPDHLPVVGALGDIAAMRQTYAKLALDKNYRIDTTCPYLPNAYTNTAHGTRGLATAPICAAAVAAEILGLPHLFSQRLRHALHPNRTVIRAIVRRQNLIPLEHHHHHH
SEWNLRRMESELRQINPDLLQPSKSFKKPSSGTITINVGGYLYAAQRHTLAKHPGSLLEEMVTGKKPVLHVDSMGNTFIDRDGPIFRHILNFLRLGELVLPEDFKETELLRREANFYRLSELAQALQDWEQQQATQREPAFLEVTDSHERSQGLRVYCSDNTFIEKVKNRLVQISKSRLDGFPEEFEVSSNIIQFRHFIKSEQGSRLVLKQDSTFLCTLECLKLETVMLALKGGFRLITSLDSSRGSVVQCEALHFVK
MTNNNQIGENKEQTIFDHKGNVIKTEDREIQIISKFEEPLIVVLGNVLSDEECDELIELSKSKLARSKVGSSRDVNDIRTSSGAFLDDNELTAKIEKRISSIMNVPASHGEGLHILNYEVDQQYKAHYDYFAEHSRSAANNRISTLVMYLNDVEEGGETFFPKLNLSVHPRKGMAVYFEYFYQDQSLNELTLHGGAPVTKGEKWIATQWVRRGTYK
